From the supplement of paper PMC11246515
± gives the standard deviation of the averaged measurements.

Test: total protein half-life in vivo (active degradation + dilution); higher = more stable protein
[1] = E. coli NCM3722 delta-clpP delta-lon delta-hslV, growth: N-lim chemostat, doubling time 6 h
[2] = E. coli NCM3722 delta-clpP, growth: N-lim chemostat, doubling time 6 h
[3] = E. coli NCM3722 delta-hslV, growth: N-lim chemostat, doubling time 6 h
[4] = E. coli NCM3722 delta-lon, growth: N-lim chemostat, doubling time 6 h
[5] = E. coli NCM3722 delta-smpB, growth: N-lim chemostat, doubling time 6 h
[6] = wild type E. coli NCM3722, growth: C-lim chemostat, doubling time 3 h
[7] = wild type E. coli NCM3722, growth: C-lim chemostat, doubling time 6 h
[8] = wild type E. coli NCM3722, growth: C-lim chemostat, doubling time 12 h
[9] = wild type E. coli NCM3722, growth: N-lim chemostat, doubling time 6 h
[10] = wild type E. coli NCM3722, growth: N-lim chemostat, doubling time 12 h
[11] = wild type E. coli NCM3722, growth: P-lim chemostat, doubling time 6 h
[12] = wild type E. coli NCM3722, growth: P-lim chemostat, doubling time 12 h

## MAEWSGEYISPYAEHGKKSEQVKKITVSIPLKVLKILTDERTRRQVNNLRHATNSELLCEAFLHAFTGQPLPDDADLRKERSDEIPEAAKEIMREMGINPETWEY [P0A8U6]
[1]
  total protein half-life in vivo: > 8 h
[2]
  total protein half-life in vivo: 5.7 h
[3]
  total protein half-life in vivo: 5.96 ± 0.098 h
[4]
  total protein half-life in vivo: 6.2 ± 0.13 h
[5]
  total protein half-life in vivo: 6.26 ± 0.61 h
[6]
  total protein half-life in vivo: 3.19 ± 0.061 h
[7]
  total protein half-life in vivo: 5.63 ± 0.29 h
[8]
  total protein half-life in vivo: 6.09 h
[9]
  total protein half-life in vivo: 4.87 ± 0.35 h
[10]
  total protein half-life in vivo: 10.7 ± 6.7 h
[11]
  total protein half-life in vivo: 4.35 ± 0.99 h
[12]
  total protein half-life in vivo: 12 ± 4.2 h

## MTDLSHSREKDKINPVVFYTSAGLILLFSLTTILFRDFSALWIGRTLDWVSKTFGWYYLLAATLYIVFVVCIACSRFGSVKLGPEQSKPEFSLLSWAAMLFAAGIGIDLMFFSVAEPVTQYMQPPEGAGQTIEAARQAMVWTLFHYGLTGWSMYALMGMALGYFSYRYNLPLTIRSALYPIFGKRINGPIGHSVDIAAVIGTIFGIATTLGIGVVQLNYGLSVLFDIPDSMAAKAALIALSVIIATISVTSGVDKGIRVLSELNVALALGLILFVLFMGDTSFLLNALVLNVGDYVNRFMGMTLNSFAFDRPVEWMNNWTLFFWAWWVAWSPFVGLFLARISRGRTIRQFVLGTLIIPFTFTLLWLSVFGNSALYEIIHGGAAFAEEAMVHPERGFYSLLAQYPAFTFSASVATITGLLFYVTSADSGALVLGNFTSQLKDINSDAPGWLRVFWSVAIGLLTLGMLMTNGISALQNTTVIMGLPFSFVIFFVMAGLYKSLKVEDYRRESANRDTAPRPLGLQDRLSWKKRLSRLMNYPGTRYTKQMMETVCYPAMEEVAQELRLRGAYVELKSLPPEEGQQLGHLDLLVHMGEEQNFVYQIWPQQYSVPGFTYRARSGKSTYYRLETFLLEGSQGNDLMDYSKEQVITDILDQYERHLNFIHLHREAPGHSVMFPDA [P0ABC9]
[1]
  total protein half-life in vivo: 6.17 ± 0.24 h
[2]
  total protein half-life in vivo: 7.418 ± 0.034 h
[3]
  total protein half-life in vivo: 5.75 ± 1.3 h
[4]
  total protein half-life in vivo: > 8 h
[5]
  total protein half-life in vivo: 5.11 ± 0.14 h
[7]
  total protein half-life in vivo: 5.56 h
[8]
  total protein half-life in vivo: 11.6 ± 2 h
[9]
  total protein half-life in vivo: 6.17 h
[10]
  total protein half-life in vivo: 9.97 h
[11]
  total protein half-life in vivo: 6.22 ± 1.3 h
[12]
  total protein half-life in vivo: 13.1 ± 1.3 h

## MSHRRSTVKGSLSFANPTVRAWLFQILAVVAVVGIVGWLFHNTVTNLNNRGITSGFAFLDRGAGFGIVQHLIDYQQGDTYGRVFIVGLLNTLLVSALCIVFASVLGFFIGLARLSDNWLLRKLSTIYIEIFRNIPPLLQIFFWYFAVLRNLPGPRQAVSAFDLAFLSNRGLYIPSPQLGDGFIAFILAVVMAIVLSVGLFRFNKTYQIKTGQLRRTWPIAAVLIIGLPLLAQWLFGAALHWDVPALRGFNFRGGMVLIPELAALTLALSVYTSAFIAEIIRAGIQAVPYGQHEAARSLGLPNPVTLRQVIIPQALRVIIPPLTSQYLNIVKNSSLAAAIGYPDMVSLFAGTVLNQTGQAIETIAMTMSVYLIISLTISLLMNIYNRRIAIVER
[3]
  total protein half-life in vivo: 3.79 h
[9]
  total protein half-life in vivo: 4.44 ± 0.14 h
[10]
  total protein half-life in vivo: 6.58 h

## MTITPQNLIALLPLLIVGLTVVVVMLSIAWRRNHFLNATLSVIGLNAALVSLWFVGQAGAMDVTPLMRVDGFAMLYTGLVLLASLATCTFAYPWLEGYNDNKDEFYLLVLIAALGGILLANANHLASLFLGIELISLPLFGLVGYAFRQKRSLEASIKYTILSAAASSFLLFGMALVYAQSGDLSFVALGKNLGDGMLNEPLLLAGFGLMIVGLGFKLSLVPFHLWTPDVYQGAPAPVSTFLATASKIAIFGVVMRLFLYAPVGDSEAIRVVLAIIAFASIIFGNLMALSQTNIKRLLGYSSISHLGYLLVALIALQTGEMSMEAVGVYLAGYLFSSLGAFGVVSLMSSPYRGPDADSLFSYRGLFWHRPILAAVMTVMMLSLAGIPMTLGFIGKFYVLAVGVQAHLWWLVGAVVVGSAIGLYYYLRVAVSLYLHAPEQPGRDAPSNWQYSAGGIVVLISALLVLVLGVWPQPLISIVRLAMPLM [P0AFF0]
[1]
  total protein half-life in vivo: 7.16 h
[2]
  total protein half-life in vivo: 6.36 ± 0.41 h
[3]
  total protein half-life in vivo: 6.09 ± 1.6 h
[5]
  total protein half-life in vivo: 6.08 h
[6]
  total protein half-life in vivo: 3.46 h
[9]
  total protein half-life in vivo: 5.29 h
[12]
  total protein half-life in vivo: 11.8 ± 1.4 h

## MINVLIIDDDAMVAELNRRYVAQIPGFQCCGTASTLEKAKEIIFNSDTPIDLILLDIYMQKENGLDLLPVLHNARCKSDVIVISSAADAATIKDSLHYGVVDYLIKPFQASRFEEALTGWRQKKMALEKHQYYDQAELDQLIHGSSSNEQDPRRLPKGLTPQTLRTLCQWIDAHQDYEFSTDELANEVNISRVSCRKYLIWLVNCHILFTSIHYGVTGRPVYRYRIQAEHYSLLKQYCQ [P0AD01]
[1]
  total protein half-life in vivo: 5.41 ± 0.33 h
[2]
  total protein half-life in vivo: 2.86 h
[3]
  total protein half-life in vivo: 4.1 ± 0.41 h
[4]
  total protein half-life in vivo: 3.42 ± 0.16 h
[5]
  total protein half-life in vivo: 3.1 ± 0.27 h
[6]
  total protein half-life in vivo: 1.69 ± 0.17 h
[7]
  total protein half-life in vivo: 3.27 ± 0.38 h
[8]
  total protein half-life in vivo: 5.01 ± 0.094 h
[9]
  total protein half-life in vivo: 3.51 ± 0.13 h
[10]
  total protein half-life in vivo: 5.76 ± 0.53 h
[11]
  total protein half-life in vivo: 1.58 h
[12]
  total protein half-life in vivo: 3.84 ± 0.61 h

## MESWLIPAAPVTVVEEIKKSRFITMLAHTDGVEAAKAFVESVRAEHPDARHHCVAWVAGAPDDSQQLGFSDDGEPAGTAGKPMLAQLMGSGVGEITAVVVRYYGGILLGTGGLVKAYGGGVNQALRQLTTQRKTPLTEYTLQCEYHQLTGIEALLGQCDGKIINSDYQAFVLLRVALPAAKVAEFSAKLADFSRGSLQLLAIEE
[1]
  total protein half-life in vivo: 5.13 h
[2]
  total protein half-life in vivo: 3.99 ± 0.14 h
[4]
  total protein half-life in vivo: 3.84 ± 0.059 h
[5]
  total protein half-life in vivo: 2.87 ± 0.15 h
[6]
  total protein half-life in vivo: 2.93 ± 0.19 h
[7]
  total protein half-life in vivo: 4.62 ± 0.11 h
[8]
  total protein half-life in vivo: 15 h
[9]
  total protein half-life in vivo: 3.48 ± 0.22 h
[10]
  total protein half-life in vivo: 4.67 ± 0.14 h
[11]
  total protein half-life in vivo: 4.78 h
[12]
  total protein half-life in vivo: 7.73 ± 0.15 h

## MCIGVPGQVLAVGEDIHQLAQVEVCGIKRDVNIALICEGNPADLLGQWVLVHVGFAMSIIDEDEAKATLDALRQMDYDITSA [P0AAM7]
[1]
  total protein half-life in vivo: 4.75 ± 0.12 h
[7]
  total protein half-life in vivo: 2.77 h
[12]
  total protein half-life in vivo: 2.51 h
